Residues, ends and D or L forms follow the SMILES beside them.
How the values were obtained:
[1] = Biodistribution in Nude mice bearing HT-29 tumor xenograft (gamma-counter); assay type: in vivo, NMRI nude mice; conditions: female, NMRI nude, mouse, in vivo, iv, total radioactivity
Method: Mice were sacrificed at 0.5, 1.0, 2.0, 4.0 and 24.0 h after injection, and a panel of organs, including blood drawn from the heart, was collected, weighed, and analyzed for radioactive content. Mean percent injected dose per gram (% ID/g)±SEM from three mice at each point is presented. A. Chemical structure of ^177Lu-DOTA-AE105. B(top) Biodistribution of ^177Lu-DOTA-AE105 in selected organs/tissues between 0.5 and 24.0 h. B (bottom). […] HT-29 colorectal cancer cells were obtained from the American Type Culture Collection (Manassas, VA, USA) and culture media was obtained from Invitrogen Co. (Carlsbad, CA, USA). The cell line was cultured in Mc.Coy's standard medium supplemented with 10% (v/v) fetal bovine serum and 1% (v/v) penicillin/Streptomycin at 37° C. and 5% CO2. Xenografts of human HT-29 colorectal cancer cells was established by injection of 200 μl cells (1×10^8 cells/ml) suspended in 100 μl Matrigel (BD Biosciences, San Jose, CA, USA), subcutaneously in the left and right flank of female NMRI nude mice obtained from Taconic, under anesthesia by Hypnorm/doricum (Study day −3). All animal experiments were performed under a protocol approved by the Animal Research Committee of the Danish Ministry of Justice. Biodistribution study was performed as previously described. In brief, Nude mice bearing HT-29 xenografts were injected in the tail-vein with 2-3 MBq of ^177Lu-DOTA-AE105 or ^177Lu-DOTA-AE105mut. All mice were euthanized after 0.5, 1, 2, 4 and 24 hr post tracer injection. Blood, tumor and major organs were collected (wet-weight) and the radioactivity was measured using a γ-counter from Perkin Elmer, MA, USA (N=4 mice/group).

[2] = Toxicity in HT-29 therapy study (body weight, kidney H&E, deaths); assay type: in vivo, NMRI nude mice; conditions: mouse, in vivo
From the text: Results are presented as the mean±SEM, n=6 animals/group. B, H&E staining of kidney sections representing kidney epithelia (top) and glomerulus (Bottom) from each treatment group. […] One pair of kidneys from one animal/group was stained. Scale bar=25 μm, 40× zoom.
Three days after tumor cell inoculation (study day 0), 18 nude mice bearing the human colorectal carcinoma xenograft HT-29 in each flank were randomly divided into three groups consisting of 6 animals each. All animals in each group were first baseline PET/CT scanned with ^18F-FLT (day 0) before being dosed with 20 MBq of either ^177Lu-DOTA-AE105, ^177Lu-DOTA-AE105mut or vehicle. Subsequently, PET/CT scans of all mice in each group were repeated with ^18F-FLT on study day 1, 3 and 6. Second treatment dose (20 MBq) was administrated on day 7, followed by CT-scan day 8, 10 and 14 to measure tumor volumes using manual ROI drawing on the reconstructed images. On day 14, all animals were euthanized and tumors and kidneys were collected and kept for further analysis at −80° C.
uPAR ELISA on resected HT-29 tumors was done as described previously in detail. All results were performed as duplicate measurements. Expression of uPAR in formalin fixed and paraffin embedded tumor tissue was evaluated by immunohistochemical staining (FIG. 7) as previously published. A general histopathology examination was performed on H&E stained kidney tissue (one pair of kidneys from one animal from each treatment group) and performed by a trained pathologist (ODL).

human uPAR = target: T1, human uPAR (Homo sapiens, UniProt Q03405); experiment: Ligand:uPAR interaction in vitro (binding affinity); conditions: binding affinity towards human uPAR
T1 construct: made in house
T1 sequence (Q03405 23-305): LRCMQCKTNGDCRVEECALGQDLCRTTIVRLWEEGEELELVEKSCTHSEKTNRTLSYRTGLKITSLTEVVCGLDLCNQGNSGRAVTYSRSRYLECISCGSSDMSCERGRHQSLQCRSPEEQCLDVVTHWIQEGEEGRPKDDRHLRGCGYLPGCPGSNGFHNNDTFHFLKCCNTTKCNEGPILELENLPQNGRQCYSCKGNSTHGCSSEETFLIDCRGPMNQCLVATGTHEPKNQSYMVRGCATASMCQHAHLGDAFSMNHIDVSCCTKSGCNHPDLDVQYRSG
From the text: In table 2, the amino acids sequences of each peptid conjugate with the corresponding binding affinity towards human uPAR are shown. Residues in bold is important for the interaction with uPAR. A substitution of two of these important amino acids (Phe^3 and Trp^8) with Glu, results in a complete loss of affinity towards uPAR. […] Importantly, no reduction in affinity is caused by conjugation of DOTA chelator in the N-terminal, illustrated with identical IC50-value between the un-conjugated peptide AE105 and the conjugated form DOTA-AE105.

SMILES | tissue uptake at 0.5 h ([1]; % ID/g Blood) [%ID/g] | tissue uptake at 0.5 h ([1]; % ID/g Bone) [%ID/g] | tissue uptake at 0.5 h ([1]; % ID/g Brain) [%ID/g] | tissue uptake at 0.5 h ([1]; % ID/g Heart) [%ID/g] | tissue uptake at 0.5 h ([1]; % ID/g Intestine) [%ID/g] | tissue uptake at 0.5 h ([1]; % ID/g Kidney) [%ID/g] | tissue uptake at 0.5 h ([1]; % ID/g Liver) [%ID/g] | tissue uptake at 0.5 h ([1]; % ID/g Muscle) [%ID/g] | tissue uptake at 0.5 h ([1]; % ID/g Spleen) [%ID/g] | tissue uptake at 0.5 h ([1]; % ID/g Tumor) [%ID/g] | animal body weight between treatment groups [2] | kidney histopathology (H&E staining) [2] | IC50 (human uPAR) [nM]
CC(C)C[C@H](NC(=O)[C@H](Cc1ccc(O)cc1)NC(=O)[C@@H](CCCNC(=N)N)NC(=O)[C@@H](CO)NC(=O)[C@H](CCC(=O)O)NC(=O)[C@H](CC1CCCCC1)NC(=O)[C@H](CC(=O)O)NC(=O)CN1CCN(CC(=O)O)CCN(CC(=O)O)CCN(CC(=O)O)CC1)C(=O)N[C@@H](CCC(=O)O)C(=O)N[C@@H](CO)C(N)=O [^177Lu-DOTA-AE105mut, metal not drawn, reference compound] (HELM PEPTIDE1{[O=C(O)CN1CCN(CC(=O)O)CCN(CC(=O)[*:2])CCN(CC(=O)O)CC1].D.[Cha].E.[dS].[dR].Y.L.E.S.[am]}$$$$V2.0) | 0.959 | 0.39 | 0.081 | 0.278 | 0.2 | 3.01 | 0.228 | 0.235 | 0.163 | 0.708 | No significant differences in the mean body weights | no gross macroscopic morphological changes | 
CC(C)C[C@H](NC(=O)[C@H](Cc1ccc(O)cc1)NC(=O)[C@@H](CCCNC(=N)N)NC(=O)[C@@H](CO)NC(=O)[C@H](CCC(=O)O)NC(=O)[C@H](CC1CCCCC1)NC(=O)[C@H](CC(=O)O)NC(=O)CN1CCN(CC(=O)O)CCN(CC(=O)O)CCN(CC(=O)O)CC1)C(=O)N[C@@H](CCC(=O)O)C(=O)N[C@@H](CO)C(N)=O [DOTA-AE105mut, DOTA-Asp-Cha-Glu-(D)Ser-(D)Arg-Tyr-Leu-Glu-Ser-CONH2] (HELM PEPTIDE1{[O=C(O)CN1CCN(CC(=O)O)CCN(CC(=O)[*:2])CCN(CC(=O)O)CC1].D.[Cha].E.[dS].[dR].Y.L.E.S.[am]}$$$$V2.0) |  |  |  |  |  |  |  |  |  |  |  |  | > 10

From US12589171B2, “177-Lu labeled peptide for site-specific uPAR-targeting” (priority 2012, dated 2026)
